Measurements reported in PMC6987120, “Structural insights into ATP hydrolysis by the MoxR ATPase RavA and the LdcI-RavA cage-like complex” (Communications Biology, 2020).
Where “and” joins values, the source holds several entries; their conditions need not be identical. Identical values can stand only once.

T1: LdcI (acid stress-inducible lysine decarboxylase) (E. coli, UniProt P0A9H3 1-715)
T1 construct: Inducible lysine decarboxylase LdcI of E. coli; 0.1 mM PLP in the BLI buffer; also called lysine decarboxylase LdcI; source: E. coli ppGpp-/- strain MG1655 ΔrelA ΔspoT, purified as previously described
T1 sequence: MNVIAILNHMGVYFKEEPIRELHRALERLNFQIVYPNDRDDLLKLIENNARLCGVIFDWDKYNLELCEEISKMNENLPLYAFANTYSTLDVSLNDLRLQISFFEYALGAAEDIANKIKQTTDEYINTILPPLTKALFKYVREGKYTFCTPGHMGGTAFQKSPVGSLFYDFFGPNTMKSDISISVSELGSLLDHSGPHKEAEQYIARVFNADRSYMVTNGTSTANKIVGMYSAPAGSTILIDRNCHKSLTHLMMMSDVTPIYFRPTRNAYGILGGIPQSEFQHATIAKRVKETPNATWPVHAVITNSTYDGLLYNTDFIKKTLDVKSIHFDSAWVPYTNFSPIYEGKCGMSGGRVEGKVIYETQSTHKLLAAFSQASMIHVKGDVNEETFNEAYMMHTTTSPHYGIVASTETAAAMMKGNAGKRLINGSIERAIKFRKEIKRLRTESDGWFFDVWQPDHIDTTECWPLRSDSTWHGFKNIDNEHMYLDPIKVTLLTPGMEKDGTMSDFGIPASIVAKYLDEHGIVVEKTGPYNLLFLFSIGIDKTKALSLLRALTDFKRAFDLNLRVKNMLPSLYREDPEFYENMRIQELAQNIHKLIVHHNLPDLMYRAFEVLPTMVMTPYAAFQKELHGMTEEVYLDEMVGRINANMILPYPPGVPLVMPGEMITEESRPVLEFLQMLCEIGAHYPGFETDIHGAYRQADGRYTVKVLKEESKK

B1: biotinylated RavA-AviTag (enzyme)
chain: not shown
modifications: biotin (biotinylated AviTag)
notes: RavA of E. coli cloned in the p11 vector (N-terminal cleavable HIS-tag) with a C-terminal AviTag added; Incubated with 1 mM ADP for 10 min before BLI; also called AviTag-containing RavA; source: E. coli BL-21 DE3 (100 μM D-biotin in the LB medium, overnight, 20 °C), purified to homogeneity; not shown: AviTag, C-terminal, kept
B2: MoxR AAA+ ATPase RavA (enzyme)
chain: not shown
notes: RavA, MoxR family AAA+ ATPase of E. coli, encoded by the ravAviaA operon; cloned in the p11 vector (N-terminal cleavable HIS-tag); Hexamer (spiral or C2-symmetric closed ring) by cryo-EM with ADP; also called free RavA; RavA-ADP
B3: biotinylated RavA-AviTag (enzyme)
chain: not shown
modifications: biotin (biotinylated AviTag)
notes: MoxR AAA+ ATPase RavA of E. coli, cloned in the p11 vector (N-terminal cleavable HIS-tag) with a C-terminal AviTag added; The methods describe biotinylation during expression (D-biotin in the medium), the results say 'in vitro biotinylated'; source: E. coli BL-21 DE3 (100 μM D-biotin in the LB medium, overnight, 20 °C), purified to homogeneity; not shown: AviTag, C-terminal, kept
B4: acid stress-inducible lysine decarboxylase LdcI (enzyme, E. coli)
chain: T1 sequence
notes: LdcI, inducible lysine decarboxylase of E. coli; Decamer in the cryo-EM maps of the cage; Buffers held 0.1 mM PLP; source: ppGpp-/- E. coli strain (MG1655 ΔrelA ΔspoT), purified as previously described; copies: 10

Key:
[1] = molecular target: B4; assay: BLI; biotinylated RavA-AviTag (pre-incubated with 1 mM ADP) immobilised on streptavidin biosensors; LdcI 500-31.25 nM in solution; Octet RED96, 293 K; pH 8 (Tris), 7 (HEPES), 6.5 and 5 (MES), 300 mM NaCl, 10 mM MgCl2, 10% glycerol, 0.1% BSA, 0.02% Tween-20, 1 mM ADP, 1 mM DTT, 0.1 mM PLP; 1:1 interaction model; averages over the four pH values; details: both partners purified
[2] = molecular target: B4; assay: cryo-EM structure; purified LdcI and RavA mixed at about 4.5:2 RavA:LdcI monomers; 20 mM Tris pH 7.9, 300 mM NaCl, 2 mM ADP, 10 mM MgCl2, 0.1 mM PLP, 1 mM DTT; room temperature; maps of Class 1 and Class 2 without symmetry imposed; details: both partners purified
[3] = molecular target: the molecule itself; assay: as above
[4] = molecular target: T1, LdcI (acid stress-inducible lysine …); assay: BLI; biotinylated RavA-AviTag incubated with 1 mM ADP for 10 min, on streptavidin biosensors, quenched with biocytin; LdcI 500-31.25 nM in solution; pH 5.0 (1x MES pH 5, with 1x kinetics buffer, 1 mM ADP, 1 mM DTT, 0.1 mM PLP); 293 K, Octet RED96; 1:1 interaction model; details: both partners purified
[5] = molecular target: T1, LdcI (acid stress-inducible lysine …); assay: BLI; biotinylated RavA-AviTag on streptavidin biosensors WITHOUT prior incubation with ADP, quenched with biocytin; LdcI 500-31.25 nM in solution; pH 7.0 (1x HBS: 25 mM HEPES, 300 mM NaCl, 10 mM MgCl2, 10% glycerol, with 1x kinetics buffer, 1 mM DTT, 0.1 mM PLP); 293 K, Octet RED96; 1:1 interaction model; details: both partners purified
[6] = molecular target: T1, LdcI (acid stress-inducible lysine …); assay: BLI; biotinylated RavA-AviTag incubated with 1 mM ADP for 10 min, on streptavidin biosensors, quenched with biocytin; LdcI 500-31.25 nM in solution; pH 6.5 (1x MES: 25 mM MES, 300 mM NaCl, 10 mM MgCl2, 10% glycerol, with 1x kinetics buffer, 1 mM ADP, 1 mM DTT, 0.1 mM PLP); 293 K, Octet RED96; 1:1 interaction model; details: both partners purified
[7] = molecular target: T1, LdcI (acid stress-inducible lysine …); assay: BLI; biotinylated RavA-AviTag incubated with 1 mM ADP for 10 min, on streptavidin biosensors, quenched with biocytin; LdcI 500-31.25 nM in solution; pH 8.0 (1x TBS: 25 mM Tris, 300 mM NaCl, 10 mM MgCl2, 10% glycerol, with 1x kinetics buffer, 1 mM ADP, 1 mM DTT, 0.1 mM PLP); 293 K, Octet RED96; 1:1 interaction model; details: both partners purified
[8] = molecular target: T1, LdcI (acid stress-inducible lysine …); assay: BLI; biotinylated RavA-AviTag incubated with 1 mM ADP for 10 min, on streptavidin biosensors, quenched with biocytin; LdcI 500-31.25 nM in solution; pH 7.0 (1x HBS: 25 mM HEPES, 300 mM NaCl, 10 mM MgCl2, 10% glycerol, with 1x kinetics buffer, 1 mM ADP, 1 mM DTT, 0.1 mM PLP); 293 K, Octet RED96; 1:1 interaction model; details: both partners purified

B1
Kd [1]: 20 nM to 40 nM (2×) and 29.7 nM | koff [1]: 0.000811 s⁻¹ | kon [1]: 26800 M⁻¹ s⁻¹

B2
binding result [2]: binds | stoichiometry N [3]: 6

B3
Kd [4]: 27.1 nM | koff [4]: 0.00074 s⁻¹ | kon [4]: 27300 M⁻¹ s⁻¹ | Kd [5]: 46.3 nM | koff [5]: 0.000987 s⁻¹ | kon [5]: 21300 M⁻¹ s⁻¹ | Kd [6]: 20.9 nM | koff [6]: 0.000538 s⁻¹ | kon [6]: 25700 M⁻¹ s⁻¹ | Kd [7]: 44.2 nM | koff [7]: 0.00131 s⁻¹ | kon [7]: 29600 M⁻¹ s⁻¹ | Kd [8]: 26.7 nM | koff [8]: 0.000659 s⁻¹ | kon [8]: 24700 M⁻¹ s⁻¹

B4
stoichiometry N [3]: 10
